Numbering of substitutions follows the chain as printed.
B1: comparative antibody 1 (antibody known as AB0041) (antibody, human IgG4 S228P, kappa, V domains shown)
VH: QVQLKESGPGLVAPSQSLSITCTVSGFSLLSYGVHWVRQPPGKGLEWLGVIWTGGTTNYNSALMSRLSISKDDSKSQVFLKMNSLQTDDTAIYYCARYYYGMDYWGQGTSVTVSS
VL: DIVMTQSHKFMSTSVGDRVSITCKASQDVRNTVAWYQQKTGQSPKLLIYSSSYRNTGVPDRFTGSGSGTDFTFTISSVQAEDLAVYFCQQHYITPYTFGGGTKLEIKR
notes: also called anti-MMP9 comparative antibody 1
B2: F20-VH-GL1-V4-V9/B08-VL-GL6c (antibody, human IgG4 S228P, V domains shown)
VH: EVQLVESGGGLVQPGRSLRLSCAASGFTFNDYPMHWVRQAPGKGLEWVSGISSRSGSVGYAESVKGRFTISRDNAKNSLYLQMNSLRAEDTALYYCARDKIYYGSGSYDFYYYYGMDVWGQGTTVTVSS
VL: QSALTQPASVSGSPGQSITISCTGTSNDVGAYNRVSWYQQHPGKAPKLMIYGVSNRPSGVSNRFSGSKSGNTASLTISGLQAEDEADFYCTSYSSSTTSYVVFGGGTKVTVL
notes: The light chain constant region is not tied to it; also called F20-VH/B08-VLc variant; F20-VH/B08-VLc
B3: F20-VH-GL1/B03-VL-GL1c (antibody, human IgG4, V domains shown)
VH: B2 VH with R54N, E62D
VL: SSELTQDPAVSVALGQTVRITCQGDSLRSYYASWYQQKPGQAPVVVIYGKNNRPSGIPDRFSGSSSGNTVSLTITGAQAEDEADYYCQSRDNIGNHRVVLFGGGTKLTVL
B4: F20-VH-GL1-V4-V9-V14/B08-VL-GL6c (antibody, human IgG4 S228P, V domains shown)
VH: B2 VH with M116I
VL: B2 VL
B5: F20-VH-GL1-V1-V9/B08-VL-GL6c (antibody, human IgG4 S228P, V domains shown)
VH: B2 VH with R54Q
VL: B2 VL
B6: F20-VH-GL1/B08-VL-GL6c (antibody, human IgG4, V domains shown)
VH: B2 VH with R54N, E62D
VL: B2 VL
B7: F20-VH-GL1-V1-V9-V14/B08-VL-GL6c (antibody, human IgG4 S228P, V domains shown)
VH: B2 VH with R54Q, M116I
VL: B2 VL
B8: F20-VH-GL1-V4-V9-V14/B03-VL-GL1c (antibody, human IgG4 S228P, V domains shown)
VH: B2 VH with M116I
VL: B3 VL
B9: F20-VH-GL1-V1-V9-V14/B03-VL-GL1c (antibody, human IgG4 S228P, V domains shown)
VH: B2 VH with R54Q, M116I
VL: B3 VL

What follows are binders tested against T1, recombinant human proMMP9 (full length, latent form) (human, UniProt P14780 20-707) (assay: cell-based or functional assay).
T1 sequence (P14780 20-707): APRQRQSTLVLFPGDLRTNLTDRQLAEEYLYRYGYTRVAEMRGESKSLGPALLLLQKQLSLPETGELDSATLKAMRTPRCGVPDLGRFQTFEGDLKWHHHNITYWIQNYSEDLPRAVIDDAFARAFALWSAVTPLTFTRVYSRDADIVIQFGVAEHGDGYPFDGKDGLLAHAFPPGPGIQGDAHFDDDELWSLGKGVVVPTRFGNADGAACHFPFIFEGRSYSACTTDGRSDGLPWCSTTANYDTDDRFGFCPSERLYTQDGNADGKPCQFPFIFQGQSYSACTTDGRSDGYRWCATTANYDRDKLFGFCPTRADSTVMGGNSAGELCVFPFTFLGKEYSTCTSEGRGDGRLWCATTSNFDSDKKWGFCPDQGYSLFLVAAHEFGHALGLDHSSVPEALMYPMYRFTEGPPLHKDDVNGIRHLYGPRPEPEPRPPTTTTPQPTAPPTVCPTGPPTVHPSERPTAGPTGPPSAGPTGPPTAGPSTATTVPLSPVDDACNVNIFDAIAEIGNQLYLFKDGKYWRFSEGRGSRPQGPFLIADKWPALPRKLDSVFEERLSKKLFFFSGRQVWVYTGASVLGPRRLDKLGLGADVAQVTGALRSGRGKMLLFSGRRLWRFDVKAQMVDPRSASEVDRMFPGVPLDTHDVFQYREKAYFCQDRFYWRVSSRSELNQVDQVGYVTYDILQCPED

Binder	IC50, DQ-gelatin digestion, MMP3/MMP9 assay [nM]
B1	0.2

Each binder was assayed against T2, human MMP9 (i.e. activated MMP9), catalytically active caspase-cleaved recombinant MMP9 (human, UniProt P14780 107-707) (assay: cell-based or functional assay).
T2 sequence (P14780 107-707): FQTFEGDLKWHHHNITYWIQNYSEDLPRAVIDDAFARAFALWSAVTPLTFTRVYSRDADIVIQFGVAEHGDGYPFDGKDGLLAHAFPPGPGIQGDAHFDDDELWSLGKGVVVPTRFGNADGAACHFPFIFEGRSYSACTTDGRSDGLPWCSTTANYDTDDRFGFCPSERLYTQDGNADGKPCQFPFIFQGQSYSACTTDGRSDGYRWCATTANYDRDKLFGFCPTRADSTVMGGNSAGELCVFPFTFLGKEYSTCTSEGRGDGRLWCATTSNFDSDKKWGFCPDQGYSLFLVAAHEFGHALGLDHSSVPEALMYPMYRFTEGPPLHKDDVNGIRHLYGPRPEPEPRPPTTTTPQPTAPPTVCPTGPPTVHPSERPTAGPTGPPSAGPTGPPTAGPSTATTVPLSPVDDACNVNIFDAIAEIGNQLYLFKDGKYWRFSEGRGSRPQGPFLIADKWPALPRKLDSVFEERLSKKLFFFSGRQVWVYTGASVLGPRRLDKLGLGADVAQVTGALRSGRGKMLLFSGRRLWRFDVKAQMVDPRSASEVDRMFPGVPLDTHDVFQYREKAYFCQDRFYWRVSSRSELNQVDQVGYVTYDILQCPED

Binder	IC50, DQ-gelatin digestion, MMP9 assay with highly purified activated MMP9 [nM]
B2	2.6

The binders below were run against T3, neutrophil-derived human monomeric MMP9 (human, UniProt P14780 20-707) (assay: cell-based or functional assay).
T3 sequence (P14780 20-707): as the sequence (P14780 20-707) above

Binder	efficacy of inhibition, MMP3/MMP9 assay with neutrophil-derived MMP9 [%]	efficacy of neutralisation, APMA-activated neutrophil-derived MMP9, OmniMMP RED cleavage [%]
B2	100	100
B1	25	–

The binders below were run against T4, neutrophil-derived human dimeric MMP9 (human, UniProt P14780 20-707) (assay: cell-based or functional assay).
T4 sequence (P14780 20-707): as above

Binder	efficacy of inhibition, MMP3/MMP9 assay with neutrophil-derived MMP9 [%]	efficacy of neutralisation, APMA-activated neutrophil-derived MMP9, OmniMMP RED cleavage [%]
B2	100	100
B1	25	–

Each binder was assayed against T5, neutrophil-derived human NGAL/MMP9 complex (human, UniProt P80188 21-198) (assay: cell-based or functional assay).
T5 sequence (chain, as listed by the source limits assumed, chain 1 of 2): as the sequence (P14780 20-707) above
T5 sequence (P80188 21-198 limits assumed, chain 2 of 2): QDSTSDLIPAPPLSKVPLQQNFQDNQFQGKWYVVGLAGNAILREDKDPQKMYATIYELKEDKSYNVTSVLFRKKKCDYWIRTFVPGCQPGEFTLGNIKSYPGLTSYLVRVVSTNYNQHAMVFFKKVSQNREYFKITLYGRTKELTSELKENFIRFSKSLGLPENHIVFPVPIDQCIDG

Binder	efficacy of inhibition, MMP3/MMP9 assay with neutrophil-derived MMP9 [%]	efficacy of neutralisation, APMA-activated neutrophil-derived MMP9, OmniMMP RED cleavage [%]
B2	100	100
B1	25	–

Molecular target: T1, recombinant human proMMP9 (full length, …)
Assay: cell-based or functional assay
Remark: another data set of the same source

Binder	Efficacy, DQ-gelatin digestion, MMP3/MMP9 assay [%]	IC50 (nM), DQ-gelatin digestion, MMP3/MMP9 assay [nM]
B3	100	9.05
B4	100	20.4
B5	100	23.7
B6	100	44
B7	100	38.1
B2	100	9.52
B8	100	5.48
B9	100	15.2

Molecular target: T2, human MMP9 (i.e. activated MMP9), …
Assay: cell-based or functional assay
Remark: another data set of the same source

Binder	Efficacy, DQ-gelatin digestion, MMP9 assay [%]	IC50 (nM), DQ-gelatin digestion, MMP9 assay [nM]
B3	100	1.92
B4	100	2.92
B5	100	2.64
B6	100	3.92
B7	100	3.86
B2	100	0.97
B8	100	1.3
B9	100	3.16

What follows are binders tested against Cynomologus monkey (cyno) proMMP9 (Cynomologus monkey) (assay: cell-based or functional assay).

Binder	Efficacy, MMP3/MMP9 gelatin assay [%]	IC50 (nM), MMP3/MMP9 gelatin assay [nM]
B3	100	3.85
B4	100	10.8
B5	100	15.8
B6	100	29.9
B7	100	27.6
B2	100	5.86
B8	100	3.75
B9	100	12.5

Each binder was assayed against rat proMMP9 (rat, UniProt P50282 20-708) (assay: cell-based or functional assay).
rat proMMP9, sequence (P50282 20-708): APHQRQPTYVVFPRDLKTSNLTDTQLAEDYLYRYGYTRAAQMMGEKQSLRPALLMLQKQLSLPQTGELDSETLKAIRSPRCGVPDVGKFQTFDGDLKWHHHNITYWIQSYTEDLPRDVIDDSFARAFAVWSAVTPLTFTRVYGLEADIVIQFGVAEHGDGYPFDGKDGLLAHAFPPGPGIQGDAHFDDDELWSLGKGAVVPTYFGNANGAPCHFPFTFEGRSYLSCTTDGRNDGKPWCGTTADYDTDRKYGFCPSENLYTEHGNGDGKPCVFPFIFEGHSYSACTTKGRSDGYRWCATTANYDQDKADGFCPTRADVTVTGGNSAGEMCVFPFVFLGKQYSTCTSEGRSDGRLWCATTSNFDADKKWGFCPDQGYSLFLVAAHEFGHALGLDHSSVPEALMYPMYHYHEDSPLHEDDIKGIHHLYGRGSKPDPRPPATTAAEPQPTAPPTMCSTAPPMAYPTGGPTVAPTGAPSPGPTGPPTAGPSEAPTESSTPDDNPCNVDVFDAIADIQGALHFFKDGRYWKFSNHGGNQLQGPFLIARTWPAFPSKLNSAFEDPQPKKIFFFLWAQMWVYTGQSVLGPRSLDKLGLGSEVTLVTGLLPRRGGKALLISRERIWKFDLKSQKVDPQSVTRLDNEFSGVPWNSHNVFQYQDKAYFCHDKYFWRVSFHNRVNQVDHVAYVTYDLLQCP

Binder	Efficacy, MMP3/MMP9 gelatin assay [%]	IC50 (nM), MMP3/MMP9 gelatin assay [nM]
B3	100	4.99
B4	100	6.19
B5	100	7.77
B6	100	17.4
B7	100	12.3
B2	100	3.16
B8	100	2.83
B9	100	8.82

The binders below were run against mouse proMMP9 (mouse, UniProt P41245 20-730) (assay: cell-based or functional assay).
mouse proMMP9, sequence (P41245 20-730): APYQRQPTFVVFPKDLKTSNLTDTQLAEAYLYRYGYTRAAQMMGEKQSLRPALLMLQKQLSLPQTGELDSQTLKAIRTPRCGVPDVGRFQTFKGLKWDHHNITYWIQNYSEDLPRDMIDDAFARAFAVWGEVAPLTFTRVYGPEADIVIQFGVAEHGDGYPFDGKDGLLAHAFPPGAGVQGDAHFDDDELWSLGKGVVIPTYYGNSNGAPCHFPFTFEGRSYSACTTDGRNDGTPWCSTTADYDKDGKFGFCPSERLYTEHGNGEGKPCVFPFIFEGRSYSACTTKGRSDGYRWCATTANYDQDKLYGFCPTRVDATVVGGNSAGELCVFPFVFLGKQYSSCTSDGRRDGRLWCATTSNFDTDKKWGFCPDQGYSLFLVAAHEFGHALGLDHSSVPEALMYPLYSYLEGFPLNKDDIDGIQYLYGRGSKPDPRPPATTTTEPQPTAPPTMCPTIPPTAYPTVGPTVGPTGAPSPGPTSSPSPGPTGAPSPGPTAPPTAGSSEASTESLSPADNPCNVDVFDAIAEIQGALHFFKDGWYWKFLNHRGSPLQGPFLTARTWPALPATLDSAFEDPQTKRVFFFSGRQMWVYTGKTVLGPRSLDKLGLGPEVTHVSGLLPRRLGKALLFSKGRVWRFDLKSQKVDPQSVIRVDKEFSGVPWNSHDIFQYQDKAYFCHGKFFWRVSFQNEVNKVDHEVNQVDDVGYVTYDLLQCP

Binder	Efficacy, MMP3/MMP9 gelatin assay [%]	IC50 (nM), MMP3/MMP9 gelatin assay [nM]
B3	25	38.8
B4	100	12.7
B5	100	7.69
B6	100	7.91
B7	100	11.1
B2	100	7.8
B8	100	462
B9	–	> 500

The binders below were run against mouse active MMP9 (mouse, UniProt P41245 108-730, limits assumed) (assay: cell-based or functional assay).
mouse active MMP9, sequence (P41245 108-730 limits assumed): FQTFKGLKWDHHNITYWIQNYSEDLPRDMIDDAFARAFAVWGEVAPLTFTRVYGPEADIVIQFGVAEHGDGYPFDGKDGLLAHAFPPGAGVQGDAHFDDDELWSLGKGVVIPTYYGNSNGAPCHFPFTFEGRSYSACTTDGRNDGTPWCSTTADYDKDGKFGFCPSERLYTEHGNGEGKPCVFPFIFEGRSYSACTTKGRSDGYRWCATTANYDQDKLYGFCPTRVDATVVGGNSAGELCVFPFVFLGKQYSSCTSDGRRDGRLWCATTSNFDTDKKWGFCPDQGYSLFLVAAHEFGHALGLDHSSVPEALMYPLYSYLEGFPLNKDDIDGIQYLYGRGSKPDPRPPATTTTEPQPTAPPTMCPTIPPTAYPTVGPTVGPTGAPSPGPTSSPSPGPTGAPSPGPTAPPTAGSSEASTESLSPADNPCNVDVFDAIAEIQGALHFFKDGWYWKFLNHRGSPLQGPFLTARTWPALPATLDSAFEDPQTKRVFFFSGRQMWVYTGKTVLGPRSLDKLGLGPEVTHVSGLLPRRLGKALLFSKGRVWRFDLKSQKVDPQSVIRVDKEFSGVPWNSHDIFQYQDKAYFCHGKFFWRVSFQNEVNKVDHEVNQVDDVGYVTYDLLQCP

Binder	Efficacy, MMP9 gelatin assay [%]	IC50 (nM), MMP9 gelatin assay [nM]
B3	100	333
B4	100	2.37
B5	100	1.2
B6	100	0.86
B7	100	1.91
B2	100	1.27
B8	100	164
B9	–	> 500

Molecular target: T3, neutrophil-derived human monomeric MMP9
Assay: cell-based or functional assay
Remark: another data set of the same source

Binder	IC50 (read off the curve) [nM]
B2	~10

Molecular target: T4, neutrophil-derived human dimeric MMP9
Assay: cell-based or functional assay
Remark: another data set of the same source

Binder	IC50 (read off the curve) [nM]
B2	~10

Molecular target: T3, neutrophil-derived human monomeric MMP9
Assay: cell-based or functional assay
Remark: another data set of the same source

Binder	IC50 (read off the curve) [nM]
B2	~2
B1	~1

Molecular target: T4, neutrophil-derived human dimeric MMP9
Assay: cell-based or functional assay
Remark: another data set of the same source

Binder	IC50 (read off the curve) [nM]
B2	~0.5

Molecular target: T5, neutrophil-derived human NGAL/MMP9 …
Assay: cell-based or functional assay
Remark: another data set of the same source

Binder	IC50 (read off the curve) [nM]
B2	~2
B1	~1

What follows are binders tested against T1, recombinant human proMMP9 (full length, …) (assay: SPR (BIAcore), antibody captured by anti-human Fc, antigen titrated 4.7-150 nM).
Procedure: (§1) In a second step, pro-MMP9 or MMP3-activated MMP9 were titrated from 4.7 to 150 nM in 2-fold dilutions.

Binder	Kd [nM]
B1	0.9

These binders were tested against MMP3-activated recombinant human MMP9 (human, UniProt P14780 107-707) in the same assay as above.
Procedure: as §1

MMP3-activated recombinant human MMP9, sequence (P14780 107-707): as the sequence (P14780 107-707) above

Binder	Kd [nM]
B2	11.7
B1	5

What follows are binders tested against T1, recombinant human proMMP9 (full length, …) (assay: SPR (BIAcore), antibody captured by anti-human Fc, antigen titrated 4.7-150 nM; SPR (BIAcore), antibody captured by anti-human Fc, pro-MMP9 up to 150 nM; lower bound estimated from <1% binding).
Procedure: as §1

Binder	Kd [µM]
B2	> 15

Source: patent US20170233495A1 (CALYPSO BIOTECH, published 2017)
